# Data from patent publication US20210324099A1 (Chugai, published 2021).
# Where a chain is given by its changes, count along the chain named.
# T1: hIL6R (human, UniProt P08887 20-357)
# T1 construct: Purified from culture supernatant of a CHO line; whole entry named; also called human interleukin 6 receptor (purified antigen from hIL6R-CHO supernatant)
# T1 sequence: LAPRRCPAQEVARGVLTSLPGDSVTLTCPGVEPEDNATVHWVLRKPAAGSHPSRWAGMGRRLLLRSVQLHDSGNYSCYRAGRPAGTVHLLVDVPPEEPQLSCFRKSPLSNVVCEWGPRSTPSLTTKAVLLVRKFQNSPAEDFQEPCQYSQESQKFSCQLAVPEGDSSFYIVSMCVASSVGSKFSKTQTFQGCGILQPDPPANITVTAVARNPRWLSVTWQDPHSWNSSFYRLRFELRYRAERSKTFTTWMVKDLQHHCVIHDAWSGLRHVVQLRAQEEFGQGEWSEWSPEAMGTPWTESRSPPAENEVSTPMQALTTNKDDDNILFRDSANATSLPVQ
# B1: H5041-mFa31/L3023-ml0 (antibody, mouse IgG2a, V domains shown)
# VH: EVQLVESGGGLVKPGGSLRLSCAASGFTFNTYTMHWVRQAPGKGLEWVSSISSSSKHIYYADSVKGRFTISRDNAKNSLYLQMNSLRAEDTAVYYCARYGRPWELLWVLDYWGQGTLVTVSS
# VL: QSALTQPPSASGSPGQTVTISCTGTSTPSGAYDYVSWYQQHPGKAPKLMIYQVSKRPSGVPDRFSGSKSGNTASLTVSGLQAEDEADYFCSTTNSAWDPDFGGGTKLTVLQ
# notes: the text of the results names L3021
# B2: H0052-G4T1/L1083-lam1 (antibody, human IgG4 S228P, lambda, V domains shown)
# VH: EVQLVESGGDLVKPGGGLRLSCAASGFTFSSYTMNWVRQAPGKGLEWVSSISSRSYHIYYADSVDGRFTISRDNAKNSLYLQMNSLRAEDTAVYYCARYGKLYSLNWVFDYWGQGTLVTVSS
# VL: QSALTQPPSASGSPGQTVTISCTGTSTDVGDYAYVSWYQQHPGKAPKLMIYYVDKKPSGVPDRFSGSKSGNTASLTVSGLQAEDEADYFCSLRSPGPYPLFGGGTKLTVLG
# B3: H0041-G4T1/L1088-lam1 (antibody, human IgG4 S228P, lambda, V domains shown)
# VH: B2 VH with R54Q, D65K
# VL: B2 VL with D54S, S58D
# B4: H0002-G4T1/L1058-lam1 (antibody, human IgG4 S228P, lambda, V domains shown)
# VH: B2 VH with I58A, D65K
# VL: B2 VL with A33N, Y52E, D54V, P95A
# B5: mPD1F2VH-mF18/mPD1F2VL-mk1 (antibody, mouse IgG1, kappa, V domains shown)
# VH: EVQLVQSGGGVVQPGRSLRLSCAASGFTFSSYWMSWVRQAPGKGLEWVSAISGSGGSTYYADSVKGRFTISRDNSKNTLYLQMNSLRAEDTAVYYCAKENWGSYFDLWGQGTTVTVSS
# VL: DIVMTQSPSTLSASVGDRVTITCRASQGISSWLAWYQQKPGRAPKVLIYKASTLESGVPSRFSGSGSGTDFTLTISSLQPEDFATYYCQQSYSTPWTFGQGTKLEIKR
# notes: Control anti-PD1 antibody; also called mPD1F2VH-mF18/mPD1F2VL-mkl
# B6: MRAH-G4T1/MRAL-k0 (antibody, human IgG4 S228P, kappa, V domains shown)
# VH: QVQLQESGPGLVRPSQTLSLTCTVSGYSITSDHAWSWVRQPPGRGLEWIGYISYSGITTYNPSLKSRVTMLRDTSKNQFSLRLSSVTAADTAVYYCARSLARTTAMDYWGQGSLVTVSS
# VL: DIQMTQSPSSLSASVGDRVTITCRASQDISSYLNWYQQKPGKAPKLLIYYTSRLHSGVPSRFSGSGSGTDFTFTISSLQPEDIATYYCQQGNTLPYTFGQGTKVEIKR
# notes: Non-switch control antibody
# B7: 20H4.9-MB110/20H4.9LC-mk0 (antibody, mouse IgG1, kappa)
# heavy: QVQLQQWGAGLLKPSETLSLTCAVYGGSFSGYYWSWIRQSPEKGLEWIGEINHGGYVTYNPSLESRVTISVDTSKNQFSLKLSSVTAADTAVYYCARDYGPGNYDWYFDLWGRGTLVTVSSAKTTPPSVYPLAPGSAAQTNSMVTLGCLVKGYFPEPVTVTWNSGSLSSGVHTFPAVLQSDLYTLSSSVTVPSSTWPSETVTCNVAHPASSTKVDKKIVPRDCGCKPCICTVPEVSDVFIFPPKPKDVLTITLTPKVTCVVVDISKDDPEVQFSWFVDDVEVHTAQTQPREEQFNSTFRSVSELPIMHQDWLNGKEFKCRVNSAAFPAPIEKTISKTKGRPKAPQVYTIPPPKEQMAKDKVSLTCMITDFFPEDITVEWQWNGQPAENYKNTQPIMDTDGSYFVYSKLNVQKSNWEAGNTFTCSVLHEGLHNHHTEKSLSHSPGK
# light: EIVLTQSPATLSLSPGERATLSCRASQSVSSYLAWYQQKPGQAPRLLIYDASNRATGIPARFSGSGSGTDFTLTISSLEPEDFAVYYCQQRSNWPPALTFGGGTKVEIKRADAAPTVSIFPPSSEQLTSGGASVVCFLNNFYPKDINVKWKIDGSERQNGVLNSWTDQDSKDSTYSMSSTLTLTKDEYERHNSYTCEATHKTSTSPIVKSFNRNEC
# notes: also called NS1-MB110
# B8: 20H4.9-MB492/20H4.9LC-mk0 (antibody, mouse IgG1, kappa)
# heavy: B7 heavy with T231E, V232P, P233N, S236E, N322D
# light: B7 light
# notes: also called NS1-MB492
# B9: 20H4.9-mIgG1/20H4.9LC-mk0 (antibody)
# heavy: B7 heavy with D237S
# light: B7 light
# notes: also called NS1-mIgG1
# B10: dBBK054-P253 (antibody, human IgG1, kappa, V domains shown)
# VH: QVQLVQSGAEVKKPGSSVKVSCKASGGWFSYYMISWVRQAPGQGLEWMGVIVPINGAAQYAQKFQGRVTITADESTSTAYMELSSLRSEDTAVYYCARDRPVWRTPRGAFDIWGQGTLVTVSS
# VL: DIVMTQSPLSLPVTPGEPASISCRSSQSLVDSNMNTFLSWYLQKPGQSPQLLIYEIQHRFYGVPDRFSGSGSGTDFTLKISRVEAEDVGVYYCMQAMGFPRTFGQGTKVEIKR
# B11: dBBK102-P253 (antibody, human IgG1, kappa, V domains shown)
# VH: QVQLVQSGAEVKKPGSSVKVSCKASGGAFSYYLISWVRQAPGQGLEWMGFVDPIRGGAFYAQKFQGRVTITADESTSTAYMELSSLRSEDTAVYYCARDRPVNAAPRGAFDIWGQGTLVTVSS
# VL: B10 VL with D31W, S32N, N33D, M34R, Q57R, H58K, M97Q, G98D
# Experiments:
# mPD1-G1CH2 [1] = target: T2, mPD1-G1CH2 (mouse); test: competition ELISA: mPD1-G1CH2 coated on the plate, mPDL1-G1dCH2His (55 nM) as the blocked ligand; 1, 10 and 100 uM ATP (curves overlap)
# T2 construct: Whole entry named; also called Fc-fused murine PD1
# hIL6R [2] = target: T1, hIL6R; test: SPR 37C; ADP 10 uM
# hIL6R [3] = target: T1, hIL6R; test: SPR 37C; AMP 10 uM
# hIL6R [4] = target: T1, hIL6R; test: SPR 37C; ADP 100 uM
# hIL6R [5] = target: T1, hIL6R; test: SPR 37C; AMP 100 uM
# hIL6R [6] = target: T1, hIL6R; test: SPR 37C, mean; ATP 1 uM
# hIL6R [7] = target: T1, hIL6R; test: SPR 37C, mean; ATP 10 uM
# hIL6R [8] = target: T1, hIL6R; test: SPR 37C, mean; ATP 100 uM
# hIL6R [9] = target: T1, hIL6R; test: SPR 37C; ADP 10 uM; ADP 10 uM
# hIL6R [10] = target: T1, hIL6R; test: SPR 37C; ADP 100 uM; ADP 100 uM
# hIL6R [11] = target: T1, hIL6R; test: SPR 37C, mean; ATP 1 uM; ATP 1 uM; mean
# hIL6R [12] = target: T1, hIL6R; test: SPR 37C, mean; ATP 10 uM; ATP 10 uM; mean
# hIL6R [13] = target: T1, hIL6R; test: SPR 37C, mean; ATP 100 uM; ATP 100 uM; mean
# mPD1-G1CH2 [14] = target: T2, mPD1-G1CH2; test: competition ELISA: mPD1-G1CH2 coated on the plate, mPDL1-G1dCH2His (55 nM) as the blocked ligand; 0, 1, 10 and 100 uM ATP (curves overlap)
# mPD1-G1CH2 [15] = target: T2, mPD1-G1CH2; test: as above; remark: listed apart in the source
# hIL6R [16] = target: T1, hIL6R; test: SPR 37C, mean; ATP 0 uM
# hCD137(FXa digested) [17] = target: T3, hCD137(FXa digested) (human, UniProt Q07011 24-186); test: SPR 37C; no ATP
# T3 construct: also called human CD137 extracellular domain
# hCD137(FXa digested) [18] = target: T3, hCD137(FXa digested); test: SPR 37C; ATP 1 uM
# hCD137(FXa digested) [19] = target: T3, hCD137(FXa digested); test: SPR 37C; ATP 10 uM
# hCD137(FXa digested) [20] = target: T3, hCD137(FXa digested); test: SPR 37C; ATP 100 uM
# [21] = target: T4, Biotinylated Fc-fused monkey CD137 (monkey, biotin on the AviTag); test: ELISA; 500 uM kynurenine, Ab 10 ug/mL
# T4 construct: Monkey CD137 extracellular region, antibody constant region and Avitag; whole entry named; also called cyCD137-Fc-BAP
# hCD137.2.4-F.G1d = target: T5, hCD137.2.4-F.G1d (human); test: ELISA; 500 uM kynurenine, Ab 10 ug/mL
# T5 construct: Portion of the human CD137 extracellular region linked to an antibody constant region
# hCD137.2.3-F.G1d = target: T6, hCD137.2.3-F.G1d (human); test: ELISA; 500 uM kynurenine, Ab 10 ug/mL
# T6 construct: Portion of the human CD137 extracellular region linked to an antibody constant region
# hCD137.3.4-F.G1d = target: T7, hCD137.3.4-F.G1d (human); test: ELISA; 500 uM kynurenine, Ab 10 ug/mL
# T7 construct: Portion of the human CD137 extracellular region linked to an antibody constant region
# hCD137.1-F-G1d = target: T8, hCD137.1-F-G1d (human); test: ELISA; 500 uM kynurenine, Ab 10 ug/mL
# T8 construct: Portion of the human CD137 extracellular region linked to an antibody constant region
# hCD137.1.2-F.G1d = target: T9, hCD137.1.2-F.G1d (human); test: ELISA; 500 uM kynurenine, Ab 10 ug/mL
# T9 construct: Portion of the human CD137 extracellular region linked to an antibody constant region
binder,measurement,setting,value
B1,IC50 (read off the curve),mPD1-G1CH2 [1],~0.8 µg/mL
B2,Kd,hIL6R [2],58.1 nM
same,Kd,hIL6R [3],6.64 µM
same,Kd,hIL6R [4],10.1 nM
same,Kd,hIL6R [5],118 nM
same,Kd,hIL6R [6],1450 nM
same,Kd,hIL6R [7],50.5 nM
same,Kd,hIL6R [8],8.31 nM
B3,Kd,hIL6R [5],1810 nM
same,Kd,hIL6R [9],10.3 µM
same,Kd,hIL6R [10],296 nM
same,Kd,hIL6R [11],2380 nM
same,Kd,hIL6R [12],320 nM
same,Kd,hIL6R [13],48.3 nM
B4,Kd,hIL6R [13],1160 nM
B5,IC50 (read off the curve),mPD1-G1CH2 [14],~0.6 µg/mL
same,IC50 (read off the curve),mPD1-G1CH2 [15],~0.6 µg/mL
B6,Kd,hIL6R [2],5.64 nM
same,Kd,hIL6R [3],0.00533 µM
same,Kd,hIL6R [4],5.96 nM
same,Kd,hIL6R [5],5.46 nM
same,Kd,hIL6R [16],17 nM
same,Kd,hIL6R [6],18.8 nM
same,Kd,hIL6R [7],17.9 nM
same,Kd,hIL6R [8],18 nM
B7,Kd,hCD137(FXa digested) [17],61 nM
same,Kd,hCD137(FXa digested) [18],56.5 nM
same,Kd,hCD137(FXa digested) [19],53.9 nM
same,Kd,hCD137(FXa digested) [20],51.9 nM
B8,Kd,hCD137(FXa digested) [17],61.6 nM
same,Kd,hCD137(FXa digested) [18],54.9 nM
same,Kd,hCD137(FXa digested) [19],53.5 nM
same,Kd,hCD137(FXa digested) [20],50.4 nM
B9,Kd,hCD137(FXa digested) [17],61.7 nM
same,Kd,hCD137(FXa digested) [18],56.2 nM
same,Kd,hCD137(FXa digested) [19],54.4 nM
same,Kd,hCD137(FXa digested) [20],53.6 nM
B10,absorbance ratio,[21],1.1
same,absorbance ratio,hCD137.2.4-F.G1d,1.3
same,absorbance ratio,hCD137.2.3-F.G1d,1.1
same,absorbance ratio,hCD137.3.4-F.G1d,1.3
B11,absorbance ratio,hCD137.1-F-G1d,1.2
same,absorbance ratio,hCD137.1.2-F.G1d,1.2
same,absorbance ratio,hCD137.2.4-F.G1d,1.1
same,absorbance ratio,hCD137.2.3-F.G1d,1.1
same,absorbance ratio,hCD137.3.4-F.G1d,1.1
